Reference: patent US20240277803A1, “NME INHIBITORS AND METHODS OF USING NME INHIBITORS” (Minerva Biotechnologies Corporation, priority 2013, published 2024)

Experiments:
Human stem cells (iPS) = assay: human iPS stem cell culture in NME7-AB or NM23-H1 dimers; assay type: cell-based
Procedure: Testing recombinant NME7 for ability to maintain pluripotency and inhibit differentiation. A soluble variant of NME7, NME7-AB, was generated and purified. Human stem cells (iPS cat #SC101a-1, System Biosciences) were grown per the manufacturer's directions in 4 ng/ml bFGF over a layer of mouse fibroblast feeder cells for four passages. These source stem cells were then plated into 6-well cell culture plates (Vita™, Thermo Fisher) that had been coated with 12.5 ug/well of a monoclonal anti-MUC1* antibody, MN-C3. Cells were plated at a density of 300,000 cells per well. The base media was Minimal Stem Cell Media consisting of: 400 ml DME/F12/GlutaMAX I (Invitrogen #10565-018), 100 ml Knockout Serum Replacement (KO-SR, Invitrogen #10828-028), 5 ml 100×MEM Non-essential Amino Acid Solution (Invitrogen#11140-050) and 0.9 ml (0.1 mM) β-mercaptoethanol (55 mM stock, Invitrogen #21985-023). The base media can be any media. In a preferred embodiment, the base media is free of other growth factors and cytokines. To the base media was added either 8 nM of NME7-AB or 8 nM NM23-H1 refolded and purified as stable dimers. Media was changed every 48 hours and due to accelerated growth had to be harvested and passaged at Day 3 post-plating. FIGS. 9 and 10 document the day by day comparison of growth in NM23-H1 dimers to growth in NME7 monomers. […] Cell counts at the first harvest verified that culture in NME7 produced 1.4-times more cells than culture in NM23-H1 dimers.

T47D breast cancer cells = assay: engraftment and growth of T47D cells mixed with NME7-AB in mice (FIG. 51); assay type: in vivo, Immune-compromised mice
From the text: For example, some cancer cells are very difficult to engraft in animals. We increased the engraftment rate of cancer cells by several fold by injecting the animal with human NME7 or NME7-AB. Immune-compromised mice were implanted with T47D breast cancer cells that were mixed 50/50 vol/vol with either Matrigel or NME7-AB. After 10 days, the mice that had received the NME7 mixed cells were additionally injected with NME7-AB every day (FIG. 51). […] Engraftment rates, decreased numbers of required cells and a faster tumor growth rate resulted when NME7-AB was mixed with the cancer cells when implanted and when the mice were injected every 24 or 48 hours after implantation. A range of ratios of cancer cells to NME7 or the injection schedule of NME7 is expected to vary from one mouse strain to another and from one tumor type to another. In an improvement over this method, animals that are transgenic for human NME7 or NME7-AB greatly increase engraftment rates of cancer cells and thus, decrease the number of cells required to develop into a tumor in an animal. This allows growth of primary patient cancer cells in an animal expressing human NME7 or NME7-AB.

[1] = target: T1, MUC1* extra cellular domain peptides (Homo sapiens, UniProt P15941); assay: ELISA sandwich assay, NME7-AB dimerizes MUC1* peptide (FIG. 8); assay type: binding
T1 sequence (P15941 1110-1154): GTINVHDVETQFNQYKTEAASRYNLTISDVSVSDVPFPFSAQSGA
From the text: We made several constructs for expression of a human NME7. One of these constructs expressed well in E. coli, was secreted in soluble form as a monomer and functioned approximately as NME1 dimers did for promoting stem cell growth, pluripotency and inhibition of differentiation. In this construct, the leader sequence “DM10” was omitted from the sequence. This generated a species that was approximately the same molecular weight, 33 kDa, as the secreted form of the protein. The protein was made as a Histidine tagged protein and first purified over an NTA-Ni column, then by FPLC with greater than 98% purity. We call this form of NME7, NME7-AB. […]
The PSMGFR peptide bearing a C-terminal Cysteine (PSMGFR-Cys) was covalently coupled to BSA using Imject Maleimide activated BSA kit (Thermo Fisher). […] After 1h at RT the plate was washed 3× with PBS-T and binding of NME7 was measured at 415 nm using a ABTS solution (Pierce). […]
After 1h at RT the plate was washed 3× with PBS-T and HisTagged PSMGFR peptide (PSMGFR-His) or biotinylated PSMGFR peptide (PSMGFR-biotin), diluted in PBS-T+1% BSA, was added at different concentration. […] After 1h at RT the plate was washed 3× with PBS-T and binding of PSMGFR peptide to NME7 already bound to another PSMGFR peptide (which could not signal by anti-His antibody or by streptavidin) coupled BSA was measured at 415 nm using a ABTS solution (Pierce).

B1: NME7-AB: recombinant human NME7 of NDPK A and B domains without the DM10 leader sequence, ~33 kDa (SEQ ID NO:39) (protein, listed as Homo sapiens)
chain: MEKTLALIKPDAISKAGEIIEIINKAGFTITKLKMMMLSRKEALDFHVDHQSRPFFNELIQFITTGPIIAMEILRDDAICEWKRLLGPANSGVARTDASESIRALFGTDGIRNAAHGPDSFASAAREMELFFPSSGGCGPANTAKFTNCTCCIVKPHAVSEGLLGKILMAIRDAGFEISAMQMFNMDRVNVEEFYEVYKGVVTEYHDMVTEMYSGPCVAMEIQQNNATKTFREFCGPADPEIARHLRPGTLRAIFGKTKIQNAVHCTDLPEDGLLEVQYFFKILDN
modifications: Human NME7-AB
Human stem cells (iPS); 8 nM in minimal media over MN-C3 surface
  stem cell growth, pluripotency and differentiation: fully supported human stem cell growth
Human stem cells (iPS); 8 nM, Day 3 post-plating
  cells produced relative to culture in NM23-H1 dimers (cell counts at first harvest): 1.4 times
T47D breast cancer cells; animal injected with human NME7 or NME7-AB
  engraftment rate of cancer cells: several fold
T47D breast cancer cells; cells mixed 50/50 vol/vol with NME7-AB, then injected every day, tumor promotion
  tumor size and growth rate: larger tumors that grew at an accelerated rate
[1]
  simultaneous binding of two MUC1* extra cellular domain peptides (ELISA): can simultaneously bind two MUC1* extra cellular domain peptides
